Test results: patent publication US20170145092A1 (CHINA SYNTHETIC RUBBER, published 2017)

T1: recombinant PLVAP51-442 protein (human, UniProt Q9BX97 51-442)
T1 construct: also called recombinant PLVAP protein; recombinant human PLVAP protein
T1 sequence: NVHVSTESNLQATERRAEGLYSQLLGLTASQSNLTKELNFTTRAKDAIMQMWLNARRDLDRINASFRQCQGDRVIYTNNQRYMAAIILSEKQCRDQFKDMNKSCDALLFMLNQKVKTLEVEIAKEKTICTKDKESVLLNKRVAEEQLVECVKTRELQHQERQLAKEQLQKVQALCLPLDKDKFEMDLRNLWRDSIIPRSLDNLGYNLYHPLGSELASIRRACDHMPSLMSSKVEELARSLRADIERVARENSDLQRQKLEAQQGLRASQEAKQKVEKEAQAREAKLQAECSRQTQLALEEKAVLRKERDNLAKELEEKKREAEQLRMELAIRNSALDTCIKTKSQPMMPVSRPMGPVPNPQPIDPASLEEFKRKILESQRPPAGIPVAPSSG


Target: T1, recombinant PLVAP51-442 protein
Experiment: ANTQ300 quartz crystal microbalance
Method: Binding affinities of KFCC-GY4 and KFCC-GY5 anti-PLVAP monoclonal antibodies were measured at the ANT Technology Co., Ltd. (Taipei, Taiwan) using ANTQ300 quartz crystal microbalance technology (Lin S., et al. J Immunol Methods 239:121-124 (2000)).

Kd | Binder
60 nM | KFCC-GY4 monoclonal antibody (antibody, V domains shown, Mouse monoclonal antibody from a hybridoma, purified by Protein G; also called KFCC-GY4 mAb; KFCC-GY4 monoclonal anti-PLVAP antibody) VH: EVQLQQSGAEFVRSGASVKLSCTASGFNIKDYYIHWVKQRPEQGLEWIGWIDPENGDIEYAPKFQGKATMTADTSSNTAYLQFSSLTSEDTAVYYCLYQEGSWGQGTTLTVSS VL: not shown
41 nM | KFCC-GY5 monoclonal antibody (antibody, V domains shown, Mouse monoclonal antibody from a hybridoma, purified by Protein G; also called KFCC-GY5 mAb; KFCC-GY5 monoclonal anti-PLVAP antibody) VH: QVQLQQPGAELVRPGASVKLSCKASGYTFTSNYINWVKQRPGQGLEWIGNIYPSDGFTNYNQKFKDRATLTVDKSSSTAYMQLSSPTSEDSAVYYCTRNFDVWGAGTTVTVSS VL: DVVMTQTPLSLPVSLGDQASISCRSSQSLVHSNGNTYLQWYLQKPGQSPKLLIYTVSNRFSGVPDRFSGSGSGPDFTLKISRVEAEDLGVYFCSQSTHVPFTFGSGTKLEIK
